The results in this text go back to the DeepSol protein solubility set.

A short description of this data set: soluble on expression in E. coli; label from the status in PepcDB or PDB records.
For “MEDKVDVLIIGGGASGVTSGIQSARMGANTLILEESTWLGGMLTSAGVSAVDGNYRLPAGLWGEFKNRLSDYYGGLDSLKTGWVSNVLFEPSVGNKILHEMVAAENNLKVWKQACLEEVKRTGDEWVAKVKVEGQGVKTVRAKVMIDATELGDVAKMCGVKYDIGLEHHHHHH”, the “soluble on expression in E. coli” value is “soluble”.

As for “MEDPLGRLEWIKFLSAFYDKEDKAENYFNQQVSKVMATENKVSSLKKPKVAFGMVDNGKVYIPAKNSYAAKMVDMAGGDYIFKDLNNKSGYITLEDFYSKSKDADVLIYSSSKEYTPSLKSMLSAAPILKTIKPVKNKKVWCFGKDYYQAIDKTDEIIEDLASIFHPESFKGLEHHHHHH”, the “soluble on expression in E. coli” value was “not soluble”. With “MEDPQSKEPAGEAVALALLESPRPEGGEEPPRPSPEETQQCKFDGQETKGSKFITSSASDFSDPVYKEIAITNGCINRMSKEELRAKLSEFKLETRGVKDVLKKRLKNYYKKQKLMLKESNFADSYYDYICIIDFEATCEEGNPPEFVHEIIEFPVVLLNTHTLEIEDTFQQYVRPEINTQLSDFCISLTGITQDQVDRADTFPQVLKKVIDLMKLKELGTKYKYSLLTDGSWDMSKFLNIQCQLSRLKYPPFAKKWINIRKSYGNFYKVPRSQTKLTIMLEKLGMDYDGRPHCGLDDSKNIARIAVRMLQDGCELRINEKMHAGQLMSVSSSLPIEGTPPPQMPHFRK” the entry was “soluble”; with “MEEDLLGICGFDSSKKYRLEELAKYQSGSCIEFEDDDEMAVDYPCPFCSDDYDLVELCHHIDEEHQLDANNGICPVCSRRVKMHMVDHITTQHRDVFKRLYKDESYSAFSPGTRKYLQSLIDEPLSTNHTSKSVLDPLLSFIYNPPSPKKSKLVQPDSSSEASMEDNSLIRDSTEKDWESPSPLSDTELLEKAKKREFVQGLISSAIFDHIYNF”, “soluble”. For the sequence “MEEFVNPCKIKVIGVGGGGSNAVNRMYEDGIEGVELYAINTDVQHLSTLKVPNKIQIGEKVTRGLGAGAKPEVGEEAALEDIDKIKEILRDTDMVFISAGLGGGTGTGAAPVIAKTAKEMGILTVAVATLPFRFEGPRKMEKALKGLEKLKESSDAYIVIHNDKIKELSNRTLTIKDAFKEVDSVLSKAVRGITSIVVTPAVINVDFADVRTTLEEGGLSIIGMGEGRGDEKADIAVEKAVTSPLLEGNTIEGARRLLVTIWTSEDIPYDIVDEVMERIHSKVHPEAEIIFGAVLEPQEQDFIRVAIVATDFPEEKFQVGEKEVKFKVIKKLHHHHHH”, the “soluble on expression in E. coli” value is “soluble”.

Consider “MEEGDIVGILKVFFVRTGAIGKRLGFKAGDIRIREEIVQANLTWKEDGEIRRERIKTRFFGYFRSHVAEWEPVIAAESVDVERGEVARIKIKEITLPEYTVITPLFIRRHALGSLIDVVQQGKRRKVEEKKRIGEAIFLPARSGRVEKGDLLGVINVYYIATENFSVGRREKDEVLAKVVDERGRKEFRIKPFAYRRKTIARWEPIVAAENRKVRKGEVEEIAIEPISLEENTIVYPLYVMRNAFGSVVDVVEERPRRVEERREIIKAVFLPVFDGEIRKGQLLGVMNVYSIEVQPYEVIWRWLEEWQGEFRRLFAEVVGLEHHHHHH”, for which the “soluble on expression in E. coli” value is “soluble”. As to “MEEINTKEVAQRITTELKRYSIPQAIFAQRVLCRSQGTLSDLLRNPKPWSKLKSGRETFRRMWKWLQEPEFQRMSALRLAACKRKEQEHGKDRGNTPKKPRLVFTDVQRRTLHAIFKENKRPSKELQITISQQLGLELSTVSNFFMNARRRSLDKWLEHHHHHH”, the “soluble on expression in E. coli” value is on record as “soluble”. To “MEEKKEDKFILLKNLYEEWKDCTRCDLHKSRTRVVPGDGNPYSLLVFVGEAPGEEEDRQGKPFVGRAGQLLNRLIEEVLGMKREDVYITNVCKCRPPQNRKPTPIEMRACFPYLKKEIEIIQPKVICCLGATAGEGILGKSLRITKVRGQVFPYPYNPRIKVFLTYHPAYVLRNPKEETTIIKDFEKLKELLTQE” belongs “soluble”. With “MEEMMMNDPSAMVIYEEEVTTAPNLPCSLIQQRSWDEEKPIGYELTNTKCYKTPNGVQKTATIQREQLSTSKDFGEQQIVEMDGEFSIEGTDMHAIPCTSSSMQPSTSSNPSSGEHQPVPLRRMAIKIGQRVLRFKVISAEEAPEAPLDTQDSWINDPKPVTTPKALAGLYRCTNCKTYFGNKEVYQRHIQEVHGDARPFRCFNCGMRFANKTSMTHHLKDHSLLKPMFSCDYCPRIFSKLESKTRHHKMHFTRSTCQTCMRFFTTEDALRHHQSTAHPATFDSGPPPEDLLPNGKSARYSCSYCNLRFHFKKDMLVHERIHTGEKPYSCGYCMKSFAQSQALTAHIRTHTKELPYGCGKCDKRFRDNSCLRKHELAAHTDEPIVRPISVAYSNQVQKQMQRQRENRRKQELLIAERHPYRI” the entry was “not soluble”. To “MEERLSTTSSYPSHPGRSVEEDHNTLLASSSISSIIRGTRGHLNNFIESVGNWLVPSSSGRDDDAVSLDSCQSVYSPVRHHINSGTGGGILMEPSSIHVPENYYSVTIGEAQMVVLKRYQNLRLIGSGAQGIVCSAFDTVRNEQVAIKKLSRPFQNVTHAKRAYRELKLMSLVNHKNIIGILNCFTPQKKLDEFNDLYIVMELMDANLCQVIQMDLDHERLSYLLYQMLCGIRHLHSAGIIHRDLKPSNIVVRSDCTLKILDFGLARTAIEAFMMTPYVVTRYYRAPEVILGMGYKENVDVWSIGCIFGELIRGRVLFPGGDHIDQWTRIIEQLGTPDRSFLERLQPTVRNYVENRPRYQATPFEVLFSDNMFPMTADSSRLTGAQARDLLSRMLVIDPERRISVDDALRHPYVNVWFDEIEVYAPPPLPYDHNMDVEQNVDSWREHIFRELTDYARTHDIYS” belongs “not soluble”; to “MEESLKVGIAGLGTVGSSVVRILREKANSLTCQCGRSIKVVAVSARDKSRNRGIDLSDVKWFDSPVEMASSDEIDVFVELIGGESDVVYAAVKKALETGHHVVTANKALLAQHGGRLAVSAEKKGVFLHFEAAVAGGIPIIKVMRESLVSNHISRIYGILNGTCNYILTRMFTEGLSFKECLEDAQRLGYAEVDPTFDIGGNDTAHKLALLTSLAFGTAVSLDDIYVEGISNISQIDIRAADELGYRIKLLGVALKTETGIEQRVHPTMVPTSSMIAQIHGVTNALSIQSDLLGELLLSGPGAGGTATASAVIGDLADIAKARPGFQYAPVLGRPALGLAPHKKARISHHAGGYFIRLNVHDRAGVFAAVAKHMAGNHISLESIVQRSFVESQSVKTIILITHETTEVNVQQALAAIEKDGHLVAKSQFIRIEPMVLEHHHHHH”, “not soluble”. “MEFAGTIFIELTFTPKVPRLNRDDLNKEMDRLDSSMAMRPIPPLPTESEYDYVHGSTMRQITPQCVSTSHEDKDEGQPYRNGNVFSMSSKSDTAVLANSNDPIILPPTFSASMGTTSTLETNDTAISNTSNTKFHFANLRKLKEKINIFKNPDSST”: the “soluble on expression in E. coli” value is reported as “not soluble”. With “MEFELEQHTPIIHFQARDAGATLRASEVKPKLDKFILTQIGKRFVKKTASTTEKNFIERGIEYFQNKDEEARRVYEEEKKKGNKGAKLELCLIPGQEGALNYKLSFKLSPDAKVQYFLPMSSNPKEIDKLKSLAQEKLGVQEVEMLPLTSYFANEDKAKSEPNIKHGDTPDQIKNKKRIFEENWQKVQLATFVNTPVEGVIRFQNAGLREEVNNLITNFFMLHNFGARQSKGFGSFIISLRDGKEEEDYFDTGCACYGYSFYIPAKTLEEALRKINYFYRSLRSGFNEYRGKNEIFYAKSGMHFYATKHNFEWDKKSIKGMLFDRDKDLEGKMKKEELFAFRDLLGLSSNERWQSYKTTITKECRNKKGEKFDRIKSPIQFKPICYSKYDYIVFFDLFPEKSGIPQLKGGKVVVKSSRHKGAVLELKIQEDIDLYNVFNEIFSELNFESQVGEYDSLTDAKEIFETMKDIYEQLNKNCHE” the entry was “not soluble”; with “MEFKLHNGSGGLCCKSCSRQDKKLNTYDWLADIPGNAEESDMVEVQFKNTRKGYYRNSNKIKLEKGDIVAVEATPGHDIGTVTLTGRLVPLQMKKANFKQDAEIKRIYRKAKAVDMEKYEEAKAKEHTTMIRARQIAASLNLDMKIGDVEYQGDGNKAIFYYIADERVDFRQLIKVLAEAFRVRIEMKQIGARQEAGRIGGIGPCGRELCCATWMTSFVSVSTSAARYQDISLNPQKLAGQCAKLKCCLNYEVDCYVEAQKRLPSREIELETKDGTYYFFKADILSNQISYSTDKNFAANLVTISGKRAFEVIGLNKRGIKPDSLLEAERKPEPKKPVDLLEQESLTRFDRDRRRNAKDGNGKDEGGNGNRKKKKKNNNHPQQATNGETQSSQPTPINAQENNGSQPVQNQQRTRGERPKNNNRNNNQPRKNNESREPRSNENRETRKNEPREQRPPREPRGPRNNEQPKRIEKAQENEKPAQELEHHHHHH”, “not soluble”.
